Assay results reported in article PMC6702053 (Developmental cell, 2019).

How the values were obtained:
Assay in all cases: pull-down
[1] = molecular target: T1, GST-tagged wild-type PI31 (GST-PI31-WT) (Drosophila melanogaster, UniProt Q9V637 1-270)
T1 sequence (looked up): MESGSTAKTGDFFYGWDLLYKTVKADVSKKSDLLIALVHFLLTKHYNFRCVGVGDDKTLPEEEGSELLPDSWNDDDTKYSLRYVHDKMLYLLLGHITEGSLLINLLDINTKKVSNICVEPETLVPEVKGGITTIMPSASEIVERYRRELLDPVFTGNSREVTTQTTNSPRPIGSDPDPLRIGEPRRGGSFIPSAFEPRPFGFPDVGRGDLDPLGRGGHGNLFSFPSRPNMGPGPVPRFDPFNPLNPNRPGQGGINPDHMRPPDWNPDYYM

[2] = molecular target: T2, GST-PI31-S168D (phospho-mimetic mutant) (Drosophila melanogaster, UniProt Q9V637 1-270, S168D)
T2 sequence (looked up): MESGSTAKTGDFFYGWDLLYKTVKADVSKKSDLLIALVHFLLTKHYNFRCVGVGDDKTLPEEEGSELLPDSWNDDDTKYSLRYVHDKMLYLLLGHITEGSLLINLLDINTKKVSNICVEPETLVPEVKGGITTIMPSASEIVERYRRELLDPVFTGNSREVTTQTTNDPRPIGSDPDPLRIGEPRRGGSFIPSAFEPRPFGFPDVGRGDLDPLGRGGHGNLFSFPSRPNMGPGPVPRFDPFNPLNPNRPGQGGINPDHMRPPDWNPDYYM

[3] = molecular target: T3, GST-PI31-S168E (phospho-mimetic mutant) (Drosophila melanogaster, UniProt Q9V637 1-270, S168E)
T3 sequence (looked up): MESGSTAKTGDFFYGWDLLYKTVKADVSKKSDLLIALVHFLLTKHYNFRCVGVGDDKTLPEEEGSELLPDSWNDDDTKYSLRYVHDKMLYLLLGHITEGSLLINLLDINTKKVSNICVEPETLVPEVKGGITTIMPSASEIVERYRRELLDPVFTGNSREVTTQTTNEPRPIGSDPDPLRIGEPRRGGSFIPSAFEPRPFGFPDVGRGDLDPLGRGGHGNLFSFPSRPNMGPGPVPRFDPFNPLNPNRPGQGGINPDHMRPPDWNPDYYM

Measured: binding result

B1: recombinant FLAG-dDYNLL1 expressed in E. coli (natural protein, Drosophila melanogaster, UniProt Q24117 1-89, looked up)
chain: MSDRKAVIKNADMSEEMQQDAVDCATQALEKYNIEKDIAAYIKKEFDKKYNPTWHCIVGRNFGSYVTHETRHFIYFYLGQVAILLFKSG
binds: all assays above
